Experimental data taken from the supplement of paper PMC10567573.

B1: CHIT1 (parent)
chain: CSWKGATKQRIQDQKVPYIFRDNQ

Variants of: B1
Assay: protein stability index of a GFP-peptide fusion (GPS, HEK-293T) (PSI 1-6); higher = more stable
Conditions: c terminus: a fixed tail appended
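Further: lentivirally expressed fusions sorted by FACS into six bins by GFP to DsRed ratio, PSI derived from sequencing read proportions per bin multiplied by bin number.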

| Variant | protein stability index |
| --- | --- |
| ISWKGATKQRIQDQKVPYIFRDNQ | 2.62 |
| HSWKGATKQRIQDQKVPYIFRDNQ | 3.08 |
| NSWKGATKQRIQDQKVPYIFRDNQ | 2.88 |
| VSWKGATKQRIQDQKVPYIFRDNQ | 2.91 |
| SSWKGATKQRIQDQKVPYIFRDNQ | 3.58 |
| KSWKGATKQRIQDQKVPYIFRDNQ | 3.36 |
| QSWKGATKQRIQDQKVPYIFRDNQ | 2.81 |
| YSWKGATKQRIQDQKVPYIFRDNQ | 1.96 |
| LSWKGATKQRIQDQKVPYIFRDNQ | 2.74 |
| CSWKGATKQRIQDQKRPYIFRDNQ | 2.31 |
| CSWKGATKQRIQDQKTPYIFRDNQ | 2.37 |
| CSWKGATKQRIQDQKMPYIFRDNQ | 2.28 |
| CSWKGATKQRIQDQKFPYIFRDNQ | 2.32 |
| CSWKGATKQRIQDQKEPYIFRDNQ | 2.85 |
| CSWKGATKQRIQDQKWPYIFRDNQ | 2.04 |
| CSWKGATKQRIQDQKHPYIFRDNQ | 2.27 |
| CSWKGATKQRIQDQKSPYIFRDNQ | 2.11 |
| CSWKGATKQRIQDQKIPYIFRDNQ | 2.5 |
| CSWKGATKQRIQDQKGPYIFRDNQ | 2.73 |
| CSWKGATKQRIQQQKVPYIFRDNQ | 2.31 |
| CSWKGATKQRIQRQKVPYIFRDNQ | 1.69 |
| CSWKGATKQRIQPQKVPYIFRDNQ | 1.83 |
| CSWKGATKQRIQSQKVPYIFRDNQ | 1.73 |
| CSWKGATKQRIQAQKVPYIFRDNQ | 2.81 |

| Variant | protein stability index |
| --- | --- |
| CSWKGATKQRIQDTKVPYIFRDNQ | 2.88 |
| CSWKGATKQRIQDIKVPYIFRDNQ | 2.35 |
| CSWKGATKQRIQDPKVPYIFRDNQ | 2.98 |
| CSWKGATKQRIQDLKVPYIFRDNQ | 2.04 |
| CSWKGATKQRIQDRKVPYIFRDNQ | 2.34 |
| CSWKGATKQRIQDQMVPYIFRDNQ | 2.28 |
| CSWKGATKQRIQDQFVPYIFRDNQ | 1.54 |
| CSWKGATKQRIQDQIVPYIFRDNQ | 2.44 |
| CSWKGATKQRIQDQRVPYIFRDNQ | 2.31 |
| CSWKGATKQRIQDQVVPYIFRDNQ | 1.39 |
| CSWKGATKDRIQDQKVPYIFRDNQ | 2.58 |
| CSWKGATKFRIQDQKVPYIFRDNQ | 1.94 |
| CSWKGATKLRIQDQKVPYIFRDNQ | 1.78 |
| CSWKGATKSRIQDQKVPYIFRDNQ | 2.57 |
| CSWKGATKMRIQDQKVPYIFRDNQ | 2.29 |
| CSWKGATKRRIQDQKVPYIFRDNQ | 2.37 |
| CSWKGATKNRIQDQKVPYIFRDNQ | 2.62 |
| CSWKGATKCRIQDQKVPYIFRDNQ | 1.07 |
| CSWKGATKWRIQDQKVPYIFRDNQ | 1.39 |
| CSWKGATKHRIQDQKVPYIFRDNQ | 2.66 |
| CSWKGATKYRIQDQKVPYIFRDNQ | 2.17 |
| CSWKGATKQRIQDQKVPTIFRDNQ | 3.02 |
| CSWKGATKQRIQDQKVPRIFRDNQ | 3.08 |
| CSWKGATKQRIQDQKVPMIFRDNQ | 2.41 |

| Variant | protein stability index |
| --- | --- |
| CSWKGATKQRIQDQKVPIIFRDNQ | 2.23 |
| CSWKGATKQRIQDQKVPHIFRDNQ | 2.74 |
| CSWKGATKQRIQDQKVPGIFRDNQ | 4.15 |
| CSWKGATKQRIQDQKVPVIFRDNQ | 3.46 |
| CSWKGATKQRIQDQKVPFIFRDNQ | 2.12 |
| CSWKGATKQRIQDQKVPKIFRDNQ | 3.34 |
| CSTKGATKQRIQDQKVPYIFRDNQ | 3.23 |
| CSGKGATKQRIQDQKVPYIFRDNQ | 3.19 |
| CSNKGATKQRIQDQKVPYIFRDNQ | 2.93 |
| CSMKGATKQRIQDQKVPYIFRDNQ | 2.69 |
| CSKKGATKQRIQDQKVPYIFRDNQ | 3.63 |
| CSSKGATKQRIQDQKVPYIFRDNQ | 3.14 |
| CSEKGATKQRIQDQKVPYIFRDNQ | 4.03 |
| CSQKGATKQRIQDQKVPYIFRDNQ | 3.6 |
| CSVKGATKQRIQDQKVPYIFRDNQ | 3.46 |
| CSLKGATKQRIQDQKVPYIFRDNQ | 2.71 |
| CMWKGATKQRIQDQKVPYIFRDNQ | 2.43 |
| CIWKGATKQRIQDQKVPYIFRDNQ | 1.74 |
| CPWKGATKQRIQDQKVPYIFRDNQ | 3.02 |
| CEWKGATKQRIQDQKVPYIFRDNQ | 3.25 |
| CKWKGATKQRIQDQKVPYIFRDNQ | 2.01 |
| CDWKGATKQRIQDQKVPYIFRDNQ | 3.06 |
| CAWKGATKQRIQDQKVPYIFRDNQ | 2.39 |
| CSWKGATKQRIQDQKVGYIFRDNQ | 2.45 |

| Variant | protein stability index |
| --- | --- |
| CSWKGATKQRIQDQKVYYIFRDNQ | 1.75 |
| CSWKGATKQRIQDQKVHYIFRDNQ | 2.4 |
| CSWKGATKQRIQDQKVFYIFRDNQ | 1.54 |
| CSWKGATKQRIQDQKVDYIFRDNQ | 3.36 |
| CSWKGATKQRIQDQKVTYIFRDNQ | 2.57 |
| CSWKGATKQRIQDQKVRYIFRDNQ | 2.67 |
| CSWKGATKQRIQDQKVLYIFRDNQ | 1.33 |
| CSWKGATKQGIQDQKVPYIFRDNQ | 2.38 |
| CSWKGATKQWIQDQKVPYIFRDNQ | 1.67 |
| CSWKGATKQCIQDQKVPYIFRDNQ | 2.63 |
| CSWKGATKQLIQDQKVPYIFRDNQ | 2.41 |
| CSWKGATKQFIQDQKVPYIFRDNQ | 2.5 |
| CSWKGATKQNIQDQKVPYIFRDNQ | 3.46 |
| CSWKGATKQSIQDQKVPYIFRDNQ | 2.81 |
| CSWKGATKQRAQDQKVPYIFRDNQ | 2.85 |
| CSWKGATKQRTQDQKVPYIFRDNQ | 2.66 |
| CSWKGATKQRLQDQKVPYIFRDNQ | 3.14 |
| CSWKGATKQRHQDQKVPYIFRDNQ | 3.42 |
| CSWKGATKQREQDQKVPYIFRDNQ | 3.33 |
| CSWKGATKQRMQDQKVPYIFRDNQ | 2.5 |
| CSWKGATKQRCQDQKVPYIFRDNQ | 2.3 |
| CSWKGATKQRPQDQKVPYIFRDNQ | 2.1 |
